According to patent US20230054458A1 (JIANGSU HENGRUI MEDICINE, published 2023):

B1: IMAB-362 (positive control antibody, from WO2016166122) (antibody, human IgG1, kappa, V domains shown)
VH: QVQLQQPGAELVRPGASVKLSCKASGYTFTSYWINWVKQRPGQGLEWIGNIYPSDSYTNYNQKFKDKATLTVDKSSSTAYMQLSSPTSEDSAVYYCTRSWRGNSFDYWGQGTTLTVSS
VL: DIVMTQSPSSLTVTAGEKVTMSCKSSQSLLNSGNQKNYLTWYQQKPGQPPKLLIYWASTRESGVPDRFTGSGSGTDFTLTISSVQAEDLAVYYCQNDYSYPFTFGSGTKLEIKR
B2: humanized antibody h1901-11 (antibody, human IgG1, kappa, V domains shown)
VH: EVQLVESGGGLVQPGGSLRLSCAASGFTFSDYGIHWVRQAPGKGLEWIAYISRGSSTIYYADTVKGRFTISRDNAKNSLYLQMTSLRAEDTAVYYCARGGYDTRNAMDYWGQGTTVTVSS
VL: DIVMTQSPDSLAVSLGERATISCKSSQSLLNSGNQKNYLAWYQQKPGQPPKLLIYGASTRASGVPDRFSGSGSGTDFTLTISSLQAEDVAIYHCQNDLYYPLTFGQGTKLEIKR

Molecular target: human claudin18.2 (Claudin 18.2, Genbank NP_001002026) (human)
Test: cell-based or functional assay

Binder	ADCC effect IC50, FcrR3A-V158-NFAT-RE-Jurkat reporter luminescence, NUGC4 cells with high claudin18.2 expression	ADCC effect IC50, FcrR3A-V158-NFAT-RE-Jurkat reporter luminescence, NUGC4 cells with low claudin18.2 expression	ADCC effect IC50, FcrR3A-V158-NFAT-RE-Jurkat reporter luminescence, NUGC4 cells with moderate claudin18.2 expression
B1	0.133 µg/mL	0.183 µg/mL	0.21 µg/mL
B2	0.0262 µg/mL	0.0224 µg/mL	0.0154 µg/mL
